From patent US20110097739A1

Molecular target: HCEC protein fraction
Test: ELISA on the coated protein fraction, lysate treated or not with neuraminidase

## FC5 llama single-domain antibody (sdAb), expressed in fusion with His5 and c-myc tags (VHH)
  reduction of binding after neuraminidase treatment of the lysate: 50%
